Test results published in patent US6960559.
Each block holds one substance with its values, some of them ahead of it.

Legend:
cbz-FAF[125I]Y-NH2 = test system: T1, cbz-FAF[125I]Y-NH2
T1 sequence: FAFY

[1] = target: rat CNS myelin (spinal cord myelin membrane fraction); assay: cell-based or functional assay
[2] = target: rat CNS myelin (spinal cord myelin membrane fraction); assay: solid phase radioimmunoassay, antigen-coated wells, hybridoma supernatant, 125I goat anti-mouse, background subtracted
[3] = target: rat CNS myelin, trypsin-treated; assay: as above
[4] = target: rat PNS myelin (sciatic nerve myelin membrane fraction); assay: as above
[5] = target: 250 kD CNS myelin associated inhibitory protein from rat CNS myelin (rat); assay: solid phase radioimmunoassay on liposomes with gel-extracted protein, 125I goat anti-mouse, background subtracted
[6] = target: 35 kD CNS myelin associated inhibitory protein from rat CNS myelin (rat); assay: as above
[7] = target: CNS myelin protein liposomes (total rat CNS myelin protein reconstituted in lipid vesicles); assay: cell-based or functional assay
[8] = target: 250 kD CNS myelin associated inhibitory protein from rat CNS myelin (rat); assay: cell-based or functional assay
[9] = target: 35 kD CNS myelin associated inhibitory protein from rat CNS myelin (rat); assay: cell-based or functional assay

Sequence of tissue-type plasminogen activator (tPA) (P00750 36-562): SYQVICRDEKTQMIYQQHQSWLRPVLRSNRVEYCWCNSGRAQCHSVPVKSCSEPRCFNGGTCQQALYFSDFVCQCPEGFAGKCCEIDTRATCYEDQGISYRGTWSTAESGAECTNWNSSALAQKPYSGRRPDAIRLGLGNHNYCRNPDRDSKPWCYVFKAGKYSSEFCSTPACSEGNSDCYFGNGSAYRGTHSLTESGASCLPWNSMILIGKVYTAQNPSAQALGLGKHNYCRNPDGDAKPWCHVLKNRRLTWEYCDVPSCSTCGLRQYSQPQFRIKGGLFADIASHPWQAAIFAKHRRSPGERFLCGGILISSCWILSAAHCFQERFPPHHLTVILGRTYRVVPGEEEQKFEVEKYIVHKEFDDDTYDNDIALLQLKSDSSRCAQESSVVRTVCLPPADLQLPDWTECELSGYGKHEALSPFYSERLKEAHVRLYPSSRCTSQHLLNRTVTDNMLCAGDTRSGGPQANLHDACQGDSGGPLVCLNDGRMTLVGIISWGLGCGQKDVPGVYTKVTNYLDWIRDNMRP

Substance: C6 plasma membrane associated metalloendoprotease (rat C6 glioblastoma cells)
Amount necessary to degrade 50% of substrate in 30 min [µg], total C6 PM protein (cbz-FAF[125I]Y-NH2): 1.5 µg
cbz-FAF[125I]Y-NH2 degradation by the plasma membrane fraction (5 µg) (cbz-FAF[125I]Y-NH2): 2.7 nmol/min

3H-Thymidine Incorporation (%) of 3T3 cells on CNS myelin preincubated with C6 PM (untreated CNS myelin: 30) [1]: 83%
3T3 Cell Spreading (%) on CNS myelin preincubated with C6 PM (untreated CNS myelin: 15) [1]: 52%
Substance: C6 plasma membrane associated metalloendoprotease (rat C6 glioblastoma cells) (enzyme)

Substance: cathepsin D
Amount necessary to degrade 50% of substrate in 30 min [µg], pH 4.0 (cbz-FAF[125I]Y-NH2): 0.005 µg
Amount necessary to degrade 50% of substrate in 30 min [µg], pH 7.4 (cbz-FAF[125I]Y-NH2): > 100 µg

Substance: collagenase
Amount necessary to degrade 50% of substrate in 30 min (cbz-FAF[125I]Y-NH2): 3 µg

Amount of Antibody Bound (cpm of 125I-Labeled Goat Anti-Mouse) [2]: 550 cpm
Amount of Antibody Bound (cpm of 125I-Labeled Goat Anti-Mouse) [3]: 25 cpm
Amount of Antibody Bound (cpm of 125I-Labeled Goat Anti-Mouse) [4]: 80 cpm
Amount of Antibody Bound (cpm of 125I-Labeled Goat Anti-Mouse) [5]: 250 cpm
Amount of Antibody Bound (cpm of 125I-Labeled Goat Anti-Mouse) [6]: 350 cpm
3T3 spreading value on CNS lipos. preadsorbed with IN-1 (no antibody: 1.11) [7]: 2030 µm^2
% inhibition of 3T3 spreading on CNS lipos. preadsorbed with IN-1 (no antibody: 45) [7]: 10%
% inhibition of C6 spreading on CNS lipos. preadsorbed with IN-1, 0.3 mM 1,10-phenanthroline (no antibody: 46) [7]: 11%
C6 spreading value on CNS lipos. preadsorbed with IN-1, 0.3 mM 1,10-phenanthroline (no antibody: 1.35) [7]: 2250 µm^2
3T3 Spreading (µm^2) on 250 kD liposomes made from IN-1-precipitated protein, Protocol 2 [8]: 245 µm^2
3T3 Spreading (µm^2) on liposomes of IN-1-immunoprecipitated myelin protein, Protocol 1 [1]: 218 µm^2
3T3 Spreading (µm^2) on liposomes of IN-1-immunoprecipitated myelin protein, Protocol 2 [1]: 215 µm^2
3T3 Spreading (µm^2) on 35 kD liposomes made from IN-1-precipitated protein, Protocol 2 [9]: 270 µm^2
Substance: monoclonal antibody IN-1

Substance: tissue-type plasminogen activator (tPA)
Amount necessary to degrade 50% of substrate in 30 min (cbz-FAF[125I]Y-NH2): > 100 µg

Substance: trypsin
Amount necessary to degrade 50% of substrate in 30 min (cbz-FAF[125I]Y-NH2): 0.3 µg

Substance: urokinase (uPA)
Amount necessary to degrade 50% of substrate in 30 min (cbz-FAF[125I]Y-NH2): > 100 µg
